B1: RcGH3-3: GH3 protein, accession XP_002524947 (protein, listed as Ricinus communis)
chain: MAVDSGLSSPLGPPACEKDAKALQFIEEMTRNIDSVQEKVLAEILSRNAETEYLERFQLNGATDRDAFKSKVPVVTYEDLQPEIQRIANGDRSNIFSSHPISEFLTSSGTSAGERKLMPTIHEELDRRTLLYSLLMPVMNLYVPGLDKGKGLYFLFVKAETKTPGGLVARPVLTSYYKSEHFKNRPFDPYNVYTSPNETILCPDSFQSMYSQMLCGLIMREEVLRVGAVFASGLLRAIRFLQINCKHLAEDISTGTLNPKISDPSIRECMAKILKPNPELAEFITKECSEENWEGIITRIWPNTKYLDVIVTGAMAQYIPTLEYYSNGLPMACTMYASSECYFGVNLNPMVKPSDVSYTIMPNMAYFEFLPHESSSSALSRDSPPRLVDLADVEVGKEYELVITTYAGLNRYRVGDILRVTGFHNAAPQFRFIRRKNVLLSIDSDKTDESELQKAIENASLLLREFNTSVVEYTSYGDTKTIPGHYVIYWELLIKDPSNSPTEQVLNQCCLAMEESLNSVYRQGRVADSSIGPLEIRVVKNGTFEELMDYAISRGASINQYKVPRCVSFTPIMELLDSRVVSKHFSPSLPQWTPERRR
B2: RcGH3-6: GH3 protein, accession XP_002533739 (protein, listed as Ricinus communis)
chain: MPEAPKNSLISSDYNLSEKNRKTLQFIEDVTSNPDEVQKKVLEEILTRNARVEYLQKHGLNGYTDRESFKKIMPVIAYEDIQPHINRIANGDTSPILCSKPISEFLTSSGTSGGERKLMPTIEEELGRRSLLYSLLMPVMNQFVPGLEKGKGMYFLFIKSEAKTPGGLVARPVLTSYYKSSHFKDRPFDPYTNYTSPNETILCPDSYQSMYSQMLCGLCQRNDVLRVGAVFASGFIRAIRFLEKHWQLLCNDIRTGTVNPQITDLSVREAVMKILKPDPKLADFIAAECSQESWQGIITRLWPNTKYVDVIVTGTMSQYIPTLDYYSNGLPLVCTMYASSECYFGVNLNPLCKPSEVSYTLIPTMAYFEFLPVHRNNGVTNSISMPKSLNEKEQQELVDLVDVKLGQEYELVVTTYAGLYRYRVGDVLRVAGFKNKAPQFNFICRKNVVLSIDSDKTDEVELQNAVKNAVNHLVPFDATLAEYTSYADTTSIPGHYVLFWEITLNGSTPIPPSIFEDCCLTIEESLNSVYRQGRVSDKSIGPLEIKIVEPGTFDKLMDYAISLGASINQYKTPRCVKFAPIVELLNSRVVSSYFSPKCPKWVPGHKQWGNKN
B3: ThBAJ34606: GH3 protein, accession BAJ34606 (protein, listed as Thellungiella halophila)
chain: MPEAPKNESLEIFDLTLDEKNKRKLQLIEELTSNADQVQRRVLEEILTRNADVEYLRRHDLDGRTDRETFKNVMPVITYEDIQPEINRIANGDKSHILSIKPISEFLTSSGTSGGERKLMPTIEEELDRRSLLYSLLMPVMSQFVPGLDKGKGMYFLFIKSESKTPGGLPARPVLTSYYKSSHFKERPFDPYTNYTSPNETILCPDSYQSMYSQMLCGLCQHQEVLRVGAVFASGFIRAIKFLEKHWTELVCDIRTGVLSSLITDPSVREAVAKILKPNPKLADFVESECKKKSWQGIITRLWPNTKYVDVIVTGTMSQYIPTLDYYSNGLPLVCTMYASSECYFGVNLKPLCKPSEVSYTLIPTMAYFEFLPVHRNTGVTNSINLPKALTEKEQQELVDLVDVKLGQEYELVVTTYAGLCRYRVGDLLRVTGFKNKAPQFSFICRKNVVLSIDSDKTDEVELQNAVKNAVTHLVPFDASLSEYTSYADTSSIPGHYVLFWELCLDGNTPIPPSVFEDCCLAVEESLNTVYRQGRVSDKSIGPLEIKIVEPNTFDKLMDYAISLGASINQYKTPRCVKFAPIIELLNSRVVDSYFSPKCPKWVPGHRQWGSN
B4: VvGH3-1: GH3 protein, accession XP_002271252 (protein, listed as Vitis vinifera)
chain: MAVDPILSSPLGPAASEKDAKALQFIEEMTRNADSVQERVLAEILSRNGETEYLKRFKLEGSTVRETFKSKIPVIKYEDLQPEIQRIANGDRSAILSAHPISEFLTSSGTSAGERKLMPTIQEELDRRQMLYSLLMPVMNLYVPGLDKGKGLYFLFVKSETRTPGGLLARPVLTSYYKSEHFKTRPYDPYNVYTSPNEAILCADSFQSMYTQMLCGIYERKQVLRLGAVFASGLLRAIRFLQLNWHQLTHDIRTGTLSPKITDPSVRNCVAGVLKPDPELADLVAGECSKDNWEGIITRIWPNTKYLDVIVTGAMAQYIPTLDYYSGGLPLACTMYASSECYFGLNLNPMSKPSEVSYTIMPNMAYFEFLPHEHSSIPLSRDSPPRLVDLAHVEVGKEYELVITTYAGLYRYRVGDILRVTGFHNSAPQFHFVRRKNVLLSIDSDKTDEAELQKAVDNASKLLREVNTSVVEYTSFADTKTIPGHYVIYWELLVKDSANSPSDELLGQCCLAMEESLNSVYRQGRVADNSIGPLEIRVVKSGTFEELMDYAISRGASINQYKVPRCVNFTPIMELLDSRVVSSHFSPALPHWTPARRR
B5: VvGH3-2: GH3 protein, accession XP_002283886 (protein, listed as Vitis vinifera)
chain: MAVDSGLSSPLGPPACEKDAKALQFIEEMTRNPDQVQEKILAEILSQNGETEYLQRFKLAGATDRDTFKSKVPVVTYEDLQPDIQRIANGDRSPILSSHPISEFLTSSGTSAGERKLMPTIHEEWDRRQKLYSLLMPVMNLYVPGLDKGKGLYFLFVKSETKTPSGLVARPVLTGYYRSEHFKKRPYDPYNVYTSPDEAILCVDSFQSMYAQMLCGLLMHKEVLRVGAVFASGLLRAIRFLQVHWQQLAHDISTGILNPKITDPSVREGLAGILKPSQELADFIIQECSGGNWERIITRIWPNTKYLDVIVTGAMAQYIPTLDYFSGGIPLACTMYASSECYFGLNLKPMSKPSEVSYTIMPNMGYFEFLPHDPSAPPLSRDSPPRLVDLADVEVGKEYELVITTYAGLCRYRVGDILQVTGFHNSAPQFQFIRRKNVLLSIDSDKTDEAELQKAVENASLLLREFNTSVVEYTSFADTKTIPGHYVIYWELLVKDPSNSPTDTVLKQCCLAMEESLNTVYRQGRVADNSIGPLEIRVVKSGTFEELMDYAISRGASINQYKVPRCVNFTPIMELLDSRVLSTYFSPAAPHWTPERRRTD
B6: VvGH3-3: GH3 protein, accession XP_002283229 (protein, listed as Vitis vinifera)
chain: MPEAPKKSFKATGHDYCLAEKNKKALQFIEDVTTNADQVQKRVLAEILTRNAHVEYLHRHGLGGHTDRDTFKKLMPVITYEDLQPDITRIANGDTSLILCSNPISEFLTSSGTSGGERKLMPTIEEELERRSLLYSLLMPVMSQSVQGLEKGKGMYFLFIKSEAKTPGGLVARPVLTSYYKSSHFRERPYDPYTNYTSPNETILCPDSYQSMYSQMLCGLVQNKEVLRVGAVFASGFIRAIRFLEKHWTLLCRDIRTGTIDQQITDPSVREAVMRVLKPDPKLADFVEGECRKESWQGIITRLWPNTKYVDVIVTGTMSQYIPTLDYYSNDLPLVCTMYASSECYFGVNLNPLCKPSEVSYTLIPTMAYFEFLPVHRNNGTNSISVPKSLNDKEQQDLVDLVDVKLGQEYELVVTTYAGLYRYRVGDVLRVAGFKNKAPQFNFVCRKNVVLSIDSDKTDEVELQAAVKNAVNHLMPFDATLTEYTSYADTTTIPGHYVLYWELSLRGSTPIPPSVFEDCCLTVEESLNSVYRQGRVSDKSIGPLEMKIVESGTFDKLMDYAISLGASINQYKTPRCVKFAPIIELLNSRVVSNYFSPKCPKWIPGHKQWCNKN
B7: VvGH3-5: GH3 protein, accession XP_002276241 (protein, listed as Vitis vinifera)
chain: MPEAPKNRGNGAGLGVEGGILDDKNIRALEFIEDVTMNAKEVQMQVLSEIITRNSNVEYLQRHGLNGRVDADTFKKIVPVVTYEDMLPDIERIANGDMSPILCSKPISEFLTSSGTSGGERKLMPTIEEELGRRSLLYSLLMPVMNQSVPGLDEGKGMYFLFVKSEAKTPGGLMARPVLTSYYKSSYFRDRPYDPYTNYTSPNETILCPDSYQSMYSQLLCGLCQNKEVLRVGAVFASGFIRAIRFLEKHWVLLCKDIRAGTLDSQINDPSVREAVKRILKPNPELADFIEAECRRESWEGIITRLWPNTKYIDVIVTGTMSQYIPTLDYYSNGLPLVCTMYASSECYFGLNLNPLCKPSEVSYTLIPTMAYFEFLPVNRKNGFTNVSESAPLNEKEHQELVDLVDVKLGQEYELVVTTYAGLYRYRVGDILCVAGFKNKAPQFKFICRKNVALSIDSDKTDEFELQNAVKNAADHLLQFDASVTEYTSYADTSTIPGHYVLYWEIGLSGATPIPPSVFEDCCLIMEESLNSVYRQGRASDKSIGPLEIRIVEGGTFDKLMDYALSQGASINQYKTPRCVKYAPIIELLNSRVVSNYFSPKCPKWVAGHKQWCT

assay: LC-MS assay of GH3 conjugation of IAA with Asp or Glu; type: biochemical; conditions: conjugation of IAA with Asp by recombinant GH3 protein; IAA-Asp product by LC-MS
Method in brief: (§1)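 N-His-tagged GH3 homologs expressed in E. coli C41(DE3) and Ni-NTA purified (44 to 164 μg/mL) were incubated 3 hours at 30° C. in 20 mM Tris-HCl pH 8.0, 5 mM MgCl2, 1 mM DTT with 5 mM each of auxin, ATP and Asp or Glu. Conjugates were quantified by LC-MS against standards.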

| Molecule | kcat (hrs−1) IAA-Asp [h⁻¹] |
| --- | --- |
| B1 | 887.172 |
| B2 | 1037.037 |
| B3 | 610.082 |
| B4 | 964.027 |
| B5 | 1011.181 |
| B6 | 1006.325 |
| B7 | 759.486 |

same assay, conditions: conjugation of IAA with Glu by recombinant GH3 protein; IAA-Glu product by LC-MS

| Molecule | kcat (hrs−1) IAA-Glu [h⁻¹] |
| --- | --- |
| B1 | 36.015 |
| B2 | 183.972 |
| B3 | 67.109 |
| B4 | 45.433 |
| B5 | 45.833 |
| B6 | 79.770 |
| B7 | 47.289 |

assay: LC-MS assay of GH3 conjugation of 2,4-D with Asp or Glu; type: biochemical; conditions: conjugation of 2,4-D with Asp by recombinant GH3 protein; 2,4-D-Asp product by LC-MS; 5 mM 2,4-D substrate
Method in brief: as §1

| Molecule | kcat (hrs−1) 2,4-D-Asp [h⁻¹] |
| --- | --- |
| B1 | 3.813 |
| B2 | 4.189 |
| B3 | 4.232 |
| B4 | 2.529 |
| B5 | 5.691 |
| B6 | 5.615 |
| B7 | 2.603 |

same assay, conditions: conjugation of 2,4-D with Glu by recombinant GH3 protein; 2,4-D-Glu product by LC-MS; 5 mM 2,4-D substrate

| Molecule | kcat (hrs−1) 2,4-D-Glu [h⁻¹] |
| --- | --- |
| B1 | 1.854 |
| B2 | 2.525 |
| B3 | 1.750 |
| B4 | 0.635 |
| B5 | 1.113 |
| B6 | 1.602 |
| B7 | 0.974 |

Reference: patent publication US20150351390A1, “COMPOSITIONS AND METHODS FOR AUXIN-ANALOG CONJUGATION” (PIONEER HI-BRED INTERNATIONAL, INC., priority 2012, published 2015)
